Experimental findings from patent US20220306739A1 (Janssen / Centocor, published 2022) are described below.

Where two headings read alike, the source gives them in different places.

The target of experiment [1] is T1, CD123 (human, UniProt P26951 19-378).
T1 construct: whole, on cells; also called IL3RA; interleukin-3 receptor
The experiment is described as follows: flow cytometry, % Binding on Kasumi-3 cells (CD123 expressing cell line). An excerpt:
(§1) Cells were visualized on forward and sideward scatter and doublets were excluded. No secondary antibody control was used to establish background fluorescence and to gate on specific population. Background value was subtracted from main samples to get specific binding value.
For orientation: In flow cytometry, cells or beads pass a laser one at a time.

Experiment [2] deals with T1, CD123. Description: flow cytometry, % binding of bispecific antibody to Kasumi-3 cells (CD123 expressing).
Description: as §1

Experiment [3] has as its target T1, CD123. The experiment is described as follows: flow cytometry, % Binding; graph under the Kasumi-3 histogram, Kasumi-3 cells by legend paragraph 83.
Description: as §1

In experiment [4] the target is T1, CD123. The experiment is described as follows: flow cytometry, % Binding on Kasumi-3 cells (TAA expressing cell line); same graph as FIG. 30A.
Description: as §1

The target of experiment [5] is T2, B cell maturation antigen (BCMA) (UniProt Q02223 1-184, limits assumed).
T2 sequence (looked up): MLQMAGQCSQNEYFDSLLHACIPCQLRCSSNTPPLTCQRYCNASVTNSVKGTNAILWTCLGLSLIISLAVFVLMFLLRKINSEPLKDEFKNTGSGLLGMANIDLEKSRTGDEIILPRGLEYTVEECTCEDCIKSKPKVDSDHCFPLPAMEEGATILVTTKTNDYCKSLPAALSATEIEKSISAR
The experiment is described as follows: cell-based or functional assay.

Experiment [6] has as its target T2, B cell maturation antigen (BCMA). Description: cell-based or functional assay. This is another data set of the same source.
Experiment [7] has as its target T3, CD33 (human, UniProt P20138 18-364).
T3 construct: whole, on cells; also called CD33 on MOLM-13, Kasumi-1, OCI-AML-3 and Kasumi-3 cells
The experiment is described as follows: FACS binding to MOLM-13 cells (CD33 high), MFI.

Experiment [8] concerns the target T3, CD33. The experiment is described as follows: FACS binding to OCI-AML-3 cells (CD33 low), MFI.
Experiment [9] concerns the target T3, CD33. The experiment is described as follows: FACS binding to Kasumi-1 cells (CD33 med), MFI.
For experiment [10], the target named is T2, B cell maturation antigen (BCMA). Description: cell-based or functional assay. The source holds these as a separate data set.
For experiment [11] the target is unchanged. The experiment is described as follows: cell-based or functional assay. The source holds these as a separate data set.
Experiment [12] has the same target. Description: cell-based or functional assay. This is another data set of the same source.

T1 sequence (P26951 19-378): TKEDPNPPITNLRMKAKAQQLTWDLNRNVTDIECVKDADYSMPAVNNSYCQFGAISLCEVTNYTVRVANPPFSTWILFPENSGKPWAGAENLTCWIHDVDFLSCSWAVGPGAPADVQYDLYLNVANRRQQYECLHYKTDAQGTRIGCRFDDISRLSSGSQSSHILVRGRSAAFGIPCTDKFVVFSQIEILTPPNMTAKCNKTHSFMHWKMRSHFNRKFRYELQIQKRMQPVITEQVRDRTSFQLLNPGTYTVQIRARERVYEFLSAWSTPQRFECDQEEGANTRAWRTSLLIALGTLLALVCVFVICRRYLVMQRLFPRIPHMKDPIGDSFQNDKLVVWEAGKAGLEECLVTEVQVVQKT
T3 sequence (P20138 18-364): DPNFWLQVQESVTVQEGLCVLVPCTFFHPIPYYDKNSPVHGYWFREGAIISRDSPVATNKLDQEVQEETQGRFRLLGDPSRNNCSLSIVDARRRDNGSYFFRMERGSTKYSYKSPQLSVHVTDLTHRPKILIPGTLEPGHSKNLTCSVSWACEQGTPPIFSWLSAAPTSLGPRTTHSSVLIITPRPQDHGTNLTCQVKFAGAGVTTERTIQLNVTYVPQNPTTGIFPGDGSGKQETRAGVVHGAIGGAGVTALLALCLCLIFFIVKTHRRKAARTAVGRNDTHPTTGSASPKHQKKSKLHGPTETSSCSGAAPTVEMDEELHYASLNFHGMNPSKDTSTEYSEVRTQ

B1: VG1 (anti-TRGV9/anti-CD123 bispecific antibody) (bispecific antibody, human IgG4 S228P, kappa, F234A L235A)
heavy 1: EVQLQQSGAELARPGASVKLSCKASGFTFTDHYINWVKQRTGQGLEWIGQIYPGDGNTYYNQKFKGKATLTADKSSSTAYMQLSSLTSEDSAVYFCAPNYGDYTIDFWGQGTSVTVSSASTKGPSVFPLAPCSRSTSESTAALGCLVKDYFPEPVTVSWNSGALTSGVHTFPAVLQSSGLYSLSSVVTVPSSSLGTKTYTCNVDHKPSNTKVDKRVESKYGPPCPPCPAPEAAGGPSVFLFPPKPKDTLMISRTPEVTCVVVDVSQEDPEVQFNWYVDGVEVHNAKTKPREEQFNSTYRVVSVLTVLHQDWLNGKEYKCKVSNKGLPSSIEKTISKAKGQPREPQVYTLPPSQEEMTKNQVSLSCAVKGFYPSDIAVEWESNGQPENNYKTTPPVLDSDGSFFLVSRLTVDKSRWQEGNVFSCSVMHEALHNRFTQKSLSLSLGK
light 1: DIVMSQSPSSLAVSVGEKVTMSCKSSQSLLYSSNQKNYLAWYQQKPGQSPKLLIYWASTRESGVPDRFTGSGSGTDFTLTISSVKAEDLAVYYCQQYYRYHTFGTGTKLEIKRTVAAPSVFIFPPSDEQLKSGTASVVCLLNNFYPREAKVQWKVDNALQSGNSQESVTEQDSKDSTYSLSSTLTLSKADYEKHKVYACEVTHQGLSSPVTKSFNRGEC
heavy 2: EVQLVQSGAEVKKPGESLKISCKGSGYSFTSYWISWVRQMPGKGLEWMGIIDPSDSDTRYSPSFQGQVTISADKSISTAYLQWSSLKASDTAMYYCARGDGSTDLDYWGQGTLVTVSSASTKGPSVFPLAPCSRSTSESTAALGCLVKDYFPEPVTVSWNSGALTSGVHTFPAVLQSSGLYSLSSVVTVPSSSLGTKTYTCNVDHKPSNTKVDKRVESKYGPPCPPCPAPEAAGGPSVFLFPPKPKDTLMISRTPEVTCVVVDVSQEDPEVQFNWYVDGVEVHNAKTKPREEQFNSTYRVVSVLTVLHQDWLNGKEYKCKVSNKGLPSSIEKTISKAKGQPREPQVYTLPPSQEEMTKNQVSLWCLVKGFYPSDIAVEWESNGQPENNYKTTPPVLDSDGSFFLYSRLTVDKSRWQEGNVFSCSVMHEALHNHYTQKSLSLSLGK
light 2: EIVLTQSPGTLSLSPGERATLSCRASQSVSSSYLAWYQQKPGQAPRLLIYGASSRATGIPDRFSGSGSGTDFTLTISRLEPEDFAVYYCQQDYGFPWTFGQGTKVEIKRTVAAPSVFIFPPSDEQLKSGTASVVCLLNNFYPREAKVQWKVDNALQSGNSQESVTEQDSKDSTYSLSSTLTLSKADYEKHKVYACEVTHQGLSSPVTKSFNRGEC
notes: Full-length human IgG4 in knob-into-hole format; also called anti-TRGV9×CD123; Vγ9/CD123 bispecific
Regarding B1, the EC50 in experiment [1] is 0.43 nM; in experiment [2], 0.354 nM; in experiment [3], 0.354 nM; in [4] it was 0.43 nM. Also, the “EC50 (read off the curve)” value in [2] is about 0.05 µg/mL.

B2: anti-TRGV9/anti-BCMA bispecific antibody (VG9SB10SC1087_P18_C12-Fab RF, BCMA-scFv (BCMB519-scFv)) (BCV9B101.001) (bispecific antibody, human IgG1, kappa, L234A L235A)
heavy: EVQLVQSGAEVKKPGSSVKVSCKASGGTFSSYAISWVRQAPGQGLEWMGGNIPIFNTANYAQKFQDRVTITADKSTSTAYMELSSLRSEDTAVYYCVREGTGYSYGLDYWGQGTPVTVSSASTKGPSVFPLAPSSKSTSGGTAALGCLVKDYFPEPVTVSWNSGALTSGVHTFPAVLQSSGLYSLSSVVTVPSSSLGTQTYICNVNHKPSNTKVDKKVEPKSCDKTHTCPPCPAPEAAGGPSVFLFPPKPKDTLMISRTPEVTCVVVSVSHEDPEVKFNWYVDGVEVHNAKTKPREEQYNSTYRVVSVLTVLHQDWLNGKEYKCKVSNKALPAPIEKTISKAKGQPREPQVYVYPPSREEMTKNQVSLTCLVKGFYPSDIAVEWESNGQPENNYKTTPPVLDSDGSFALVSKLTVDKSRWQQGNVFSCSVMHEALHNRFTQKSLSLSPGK
light: EIVMTQSPLSSPVTLGQPASISCRSSQSLIHSDGNTYLSWLQQRPGQPPRLLIYKISNRFSGVPDRFSGSGAGTDFTLKISRVEAEDVGIYYCMQAKQFPITFGQGTKVDIKRTVAAPSVFIFPPSDEQLKSGTASVVCLLNNFYPREAKVQWKVDNALQSGNSQESVTEQDSKDSTYSLSSTLTLSKADYEKHKVYACEVTHQGLSSPVTKSFNRGEC
scFv: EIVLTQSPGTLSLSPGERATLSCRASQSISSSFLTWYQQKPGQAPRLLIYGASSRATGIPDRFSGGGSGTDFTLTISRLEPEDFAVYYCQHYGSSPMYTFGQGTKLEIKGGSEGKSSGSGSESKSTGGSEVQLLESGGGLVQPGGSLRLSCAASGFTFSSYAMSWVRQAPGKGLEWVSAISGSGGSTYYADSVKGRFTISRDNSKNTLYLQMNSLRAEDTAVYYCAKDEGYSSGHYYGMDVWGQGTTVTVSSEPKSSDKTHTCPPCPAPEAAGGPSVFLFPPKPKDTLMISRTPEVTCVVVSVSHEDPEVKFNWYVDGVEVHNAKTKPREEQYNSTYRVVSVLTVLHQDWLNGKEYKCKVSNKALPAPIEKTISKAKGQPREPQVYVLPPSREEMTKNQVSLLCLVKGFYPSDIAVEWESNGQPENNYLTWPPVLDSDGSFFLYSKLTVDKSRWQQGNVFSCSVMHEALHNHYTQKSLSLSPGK
Turning to B2, the “EC50 of γδ T-cell mediated cytotoxicity of H929 tumor cells” value in [5] came to 2.65 nM.

B3: anti-TRGV9/anti-BCMA bispecific antibody (VG9SB10SC1087_P19_C03-Fab RF, BCMA-scFv (BCMB519-scFv)) (BCV9B103.001) (bispecific antibody, human IgG1, kappa, L234A L235A)
heavy: QVQLQESGPGLVKPSQTLSLTCTVSGGSISSGGSYWSWIRQHPGKGLEWIGYIYNSGSTYYNPSLKSRVSMSVDTSKNQFSLKLSSVTAADTAVYYCARDSNYEWFFDLWGPGTLVTVSSASTKGPSVFPLAPSSKSTSGGTAALGCLVKDYFPEPVTVSWNSGALTSGVHTFPAVLQSSGLYSLSSVVTVPSSSLGTQTYICNVNHKPSNTKVDKKVEPKSCDKTHTCPPCPAPEAAGGPSVFLFPPKPKDTLMISRTPEVTCVVVSVSHEDPEVKFNWYVDGVEVHNAKTKPREEQYNSTYRVVSVLTVLHQDWLNGKEYKCKVSNKALPAPIEKTISKAKGQPREPQVYVYPPSREEMTKNQVSLTCLVKGFYPSDIAVEWESNGQPENNYKTTPPVLDSDGSFALVSKLTVDKSRWQQGNVFSCSVMHEALHNRFTQKSLSLSPGK
light: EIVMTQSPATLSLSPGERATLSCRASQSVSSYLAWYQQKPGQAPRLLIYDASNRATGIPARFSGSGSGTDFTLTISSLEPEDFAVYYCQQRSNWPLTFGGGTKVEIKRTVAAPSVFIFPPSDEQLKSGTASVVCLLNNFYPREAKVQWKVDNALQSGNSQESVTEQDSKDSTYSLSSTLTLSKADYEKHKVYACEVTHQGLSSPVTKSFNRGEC
scFv: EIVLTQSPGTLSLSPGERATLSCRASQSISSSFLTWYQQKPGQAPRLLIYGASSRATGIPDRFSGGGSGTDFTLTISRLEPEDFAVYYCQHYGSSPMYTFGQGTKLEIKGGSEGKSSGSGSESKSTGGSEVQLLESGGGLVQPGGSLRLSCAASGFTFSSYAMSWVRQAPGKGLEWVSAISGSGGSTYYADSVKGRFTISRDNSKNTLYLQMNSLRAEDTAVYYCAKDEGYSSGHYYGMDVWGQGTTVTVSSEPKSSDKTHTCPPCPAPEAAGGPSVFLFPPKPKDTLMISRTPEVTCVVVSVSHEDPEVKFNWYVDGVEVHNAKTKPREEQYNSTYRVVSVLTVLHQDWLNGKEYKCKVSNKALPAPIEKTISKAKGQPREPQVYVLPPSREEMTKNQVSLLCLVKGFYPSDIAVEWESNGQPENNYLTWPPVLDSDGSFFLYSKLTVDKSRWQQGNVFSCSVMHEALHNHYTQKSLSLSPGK
Take B3: the “EC50 of γδ T-cell mediated cytotoxicity of H929 tumor cells” value in [6] was found to be 5.84 nM.

B4: anti-CD33 antibody (clone C33B904) (antibody, V domains shown)
VH: EVQLVESGGGLVQPGRSLRLSCAASGFTFDDYAMHWVRQAPGKGLEWVSGIGWSGGSIVYADSVKGRFTISRDNAKNSLYLQMNSLRAEDTALYYCAKDSPYGDFFDYWGQGTLVTVSS
VL: DIVMTQSPDSLAVSLGERATINCKSSQTVFYSSNNKNYLAWYQQKPGQPPKLLISWASTRKSGVPDRFSGSGSGTDFTLTVSSLQAEDVAVYYCQHYYSTPYTFGQGTKLEIK
On to B4, for which the EC50 in experiment [7] is about 134 nM; in experiment [8], 16.4 nM; in experiment [9], 82.2 nM.

B5: anti-TRGV9/anti-BCMA bispecific antibody BCV9B106 (B3) (bispecific antibody, human IgG1, kappa, L234A L235A)
scFv-Fc: DIQMTQSPASLSASVGETVTITCRASENIHNYLAWYQQKQGKSPQLLVYNAKTLADGVPSRFSGSGSGTQYSLKINSLQPEDFGNYYCQHFWSYPLTFGAGTKLELKGGSEGKSSGSGSESKSTGGSQGQMQQSGAELVKPGASVKLSCKTSGFTFSSNYISWLKQKPGQSLEWIAWIHGGTGGIGYNQKFTGKAQLTVDTSSTTAYMQFSSLTTEDSAIYYCARRGYGAWFAYWGQGTLVTVSAEPKSSDKTHTCPPCPAPEAAGGPSVFLFPPKPKDTLMISRTPEVTCVVVSVSHEDPEVKFNWYVDGVEVHNAKTKPREEQYNSTYRVVSVLTVLHQDWLNGKEYKCKVSNKALPAPIEKTISKAKGQPREPQVYVYPPSREEMTKNQVSLTCLVKGFYPSDIAVEWESNGQPENNYKTTPPVLDSDGSFALVSKLTVDKSRWQQGNVFSCSVMHEALHNHYTQKSLSLSPGK
heavy: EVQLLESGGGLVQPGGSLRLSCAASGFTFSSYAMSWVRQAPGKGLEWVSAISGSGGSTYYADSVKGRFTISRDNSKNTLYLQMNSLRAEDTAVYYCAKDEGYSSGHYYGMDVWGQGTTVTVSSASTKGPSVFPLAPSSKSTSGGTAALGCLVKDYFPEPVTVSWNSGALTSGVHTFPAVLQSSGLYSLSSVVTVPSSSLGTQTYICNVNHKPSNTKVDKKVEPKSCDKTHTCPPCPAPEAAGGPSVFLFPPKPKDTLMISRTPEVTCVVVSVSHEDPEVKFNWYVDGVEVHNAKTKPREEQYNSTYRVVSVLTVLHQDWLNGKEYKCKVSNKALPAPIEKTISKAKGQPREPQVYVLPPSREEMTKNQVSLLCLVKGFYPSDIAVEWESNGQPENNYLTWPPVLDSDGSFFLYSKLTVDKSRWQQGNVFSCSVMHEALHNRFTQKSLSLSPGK
light: EIVLTQSPGTLSLSPGERATLSCRASQSISSSFLTWYQQKPGQAPRLLIYGASSRATGIPDRFSGGGSGTDFTLTISRLEPEDFAVYYCQHYGSSPMYTFGQGTKLEIKRTVAAPSVFIFPPSDEQLKSGTASVVCLLNNFYPREAKVQWKVDNALQSGNSQESVTEQDSKDSTYSLSSTLTLSKADYEKHKVYACEVTHQGLSSPVTKSFNRGEC
For B5, in experiment [10], the “EC50 of γδ T-cell mediated cytotoxicity of H929 tumor cells” value was determined as 33.7 nM.

B6: anti-TRGV9/anti-BCMA bispecific antibody (HC1: VG9B420-LH-scFv; HC2: BCMA-Fab (BCMB519-Fab)) (BCV9B71.001) (bispecific antibody, human IgG1, kappa, L234A L235A)
scFv: EIVMTQSPGTLSLSPGDRATLSCRASQSVASSYLAWYQQKPGQSPRLLIYGASSRATGIPDRFSGSGSGTDFTLTISRLEPEDFAVYYCQQYGSSPPYTFGQGTRLEIKGGSEGKSSGSGSESKSTGGSEVQLVESGGGLVKPGGSLRLSCSASGFTFSNYDMNWVRQAPGKGLEWVSSISSSSSYIYYADSVKGRFTISRDNAKNSLYLQMNSLRAEDTAVYHCARDVGVTTDYYYYGMDVWGQGTMVTVSSEPKSSDKTHTCPPCPAPEAAGGPSVFLFPPKPKDTLMISRTPEVTCVVVSVSHEDPEVKFNWYVDGVEVHNAKTKPREEQYNSTYRVVSVLTVLHQDWLNGKEYKCKVSNKALPAPIEKTISKAKGQPREPQVYVYPPSREEMTKNQVSLTCLVKGFYPSDIAVEWESNGQPENNYKTTPPVLDSDGSFALVSKLTVDKSRWQQGNVFSCSVMHEALHNHYTQKSLSLSPGK
heavy: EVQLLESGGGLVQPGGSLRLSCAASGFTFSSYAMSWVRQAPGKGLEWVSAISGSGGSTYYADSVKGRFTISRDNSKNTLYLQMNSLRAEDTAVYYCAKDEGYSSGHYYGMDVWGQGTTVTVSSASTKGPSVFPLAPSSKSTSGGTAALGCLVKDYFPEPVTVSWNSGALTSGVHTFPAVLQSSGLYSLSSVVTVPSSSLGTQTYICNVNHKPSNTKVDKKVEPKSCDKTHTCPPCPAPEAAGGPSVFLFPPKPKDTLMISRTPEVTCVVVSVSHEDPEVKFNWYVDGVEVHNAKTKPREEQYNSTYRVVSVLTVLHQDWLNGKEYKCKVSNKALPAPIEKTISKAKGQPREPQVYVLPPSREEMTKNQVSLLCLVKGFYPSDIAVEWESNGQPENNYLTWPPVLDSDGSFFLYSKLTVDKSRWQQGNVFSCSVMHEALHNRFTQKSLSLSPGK
light: EIVLTQSPGTLSLSPGERATLSCRASQSISSSFLTWYQQKPGQAPRLLIYGASSRATGIPDRFSGGGSGTDFTLTISRLEPEDFAVYYCQHYGSSPMYTFGQGTKLEIKRTVAAPSVFIFPPSDEQLKSGTASVVCLLNNFYPREAKVQWKVDNALQSGNSQESVTEQDSKDSTYSLSSTLTLSKADYEKHKVYACEVTHQGLSSPVTKSFNRGEC
For the molecule B6, the “EC50 of γδ T-cell mediated cytotoxicity of H929 tumor cells” value in experiment [11] turned out to be 3.2 nM.

B7: anti-TRGV9/anti-BCMA bispecific antibody (VG9SB10SC1087_P18_D08-Fab RF, BCMA-scFv (BCMB519-scFv)) (BCV9B100.001) (bispecific antibody, human IgG1, kappa, L234A L235A)
heavy: EVQLVQSGAEVKKPGSSVKVSCKASGDTFNNYAISWVRQAPGQGLEWMGGIIPFFGTPDYAQKFQGRVTITADKSTSTAYMELSGLRSEDTAVYYCARPGSGSPDYYYYDMDVWGQGTTVTVSSASTKGPSVFPLAPSSKSTSGGTAALGCLVKDYFPEPVTVSWNSGALTSGVHTFPAVLQSSGLYSLSSVVTVPSSSLGTQTYICNVNHKPSNTKVDKKVEPKSCDKTHTCPPCPAPEAAGGPSVFLFPPKPKDTLMISRTPEVTCVVVSVSHEDPEVKFNWYVDGVEVHNAKTKPREEQYNSTYRVVSVLTVLHQDWLNGKEYKCKVSNKALPAPIEKTISKAKGQPREPQVYVYPPSREEMTKNQVSLTCLVKGFYPSDIAVEWESNGQPENNYKTTPPVLDSDGSFALVSKLTVDKSRWQQGNVFSCSVMHEALHNRFTQKSLSLSPGK
light: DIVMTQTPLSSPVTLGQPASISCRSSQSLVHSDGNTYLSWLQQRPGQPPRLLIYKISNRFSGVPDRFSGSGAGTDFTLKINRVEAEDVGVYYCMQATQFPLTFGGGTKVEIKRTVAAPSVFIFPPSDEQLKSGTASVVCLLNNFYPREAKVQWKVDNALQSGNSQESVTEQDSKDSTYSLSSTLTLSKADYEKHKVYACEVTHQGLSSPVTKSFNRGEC
scFv: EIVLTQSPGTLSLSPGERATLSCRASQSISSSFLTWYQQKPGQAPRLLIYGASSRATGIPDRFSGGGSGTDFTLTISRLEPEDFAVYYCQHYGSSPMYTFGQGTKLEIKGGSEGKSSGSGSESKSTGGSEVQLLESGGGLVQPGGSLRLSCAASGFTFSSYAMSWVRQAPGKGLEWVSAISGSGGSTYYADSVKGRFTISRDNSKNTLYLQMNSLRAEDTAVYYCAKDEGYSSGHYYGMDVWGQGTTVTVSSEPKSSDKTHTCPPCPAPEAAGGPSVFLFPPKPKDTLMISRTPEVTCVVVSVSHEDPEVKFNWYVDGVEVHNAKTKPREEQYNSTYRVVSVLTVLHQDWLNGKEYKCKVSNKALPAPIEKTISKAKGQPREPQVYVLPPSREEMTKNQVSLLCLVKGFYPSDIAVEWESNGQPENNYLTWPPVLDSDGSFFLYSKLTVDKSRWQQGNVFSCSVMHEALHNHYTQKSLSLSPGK
As for B7, in experiment [12], the “EC50 of γδ T-cell mediated cytotoxicity of H929 tumor cells” value was 0.81 nM.

Usually EC50 stands for the concentration that produces a half-maximal response. Low readings indicate greater potency, high ones weaker potency. Usually EC50 (read off the curve) stands for the concentration that produces a half-maximal response.
